Experimental data as given in patent US20140073556A1 (published 2014).

Target: T1, recombinant protein comprising the whole extracellular part of IL1RI (UniProt P14778 18-336)
T1 chain: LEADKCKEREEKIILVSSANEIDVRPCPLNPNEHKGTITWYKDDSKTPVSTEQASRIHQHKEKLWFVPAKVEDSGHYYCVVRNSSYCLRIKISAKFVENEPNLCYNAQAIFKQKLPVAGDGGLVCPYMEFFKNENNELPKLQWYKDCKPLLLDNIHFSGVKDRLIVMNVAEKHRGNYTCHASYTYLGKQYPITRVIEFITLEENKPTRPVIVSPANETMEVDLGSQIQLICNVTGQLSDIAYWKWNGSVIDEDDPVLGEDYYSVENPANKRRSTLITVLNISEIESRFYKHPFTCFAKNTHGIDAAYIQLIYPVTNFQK
Experiment: SPR

- Kd: 171 nM
Binder: SGRKSSKMQA [Ilantafin peptide (SEQ ID NO:1), SGRKSSKMQA]
